From the supplement of paper PMC10724198
± gives the standard deviation of the averaged measurements.

Assays:
Saccharomyces cerevisiae [1] = test: protein stability index of tFT-peptide fusion (C-terminal peptide) (PSI (0-1 scale)); higher = more stable (slower turnover); conditions: genetic background: wild type; temperature: 30 C
Saccharomyces cerevisiae [2] = test: as above
Description: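 MPS profiling in S. cerevisiae of the tFT-X12 degron library: putative degron peptides plus stable controls, 12 aa, fused to the C-terminus of a sfGFP-mCherry timer. Cells are FACS-sorted into 8 mCherry/sfGFP bins and deep-sequenced. PSI runs from 0 (unstable) to 1 (stable). Backgrounds are wild type, das1Δ and doa10Δ at 30 °C, and wild type, das1Δ, cdc34-1 and cdc53-1 at 37 °C; 2-3 technical replicates each.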

[3] = genetic background: cdc34-1, temperature: 37 C
[4] = genetic background: cdc53-1, temperature: 37 C
[5] = genetic background: das1 deletion, temperature: 30 C
[6] = genetic background: das1 deletion, temperature: 37 C
[7] = genetic background: doa10 deletion, temperature: 30 C
[8] = genetic background: wild type, temperature: 30 C
[9] = genetic background: wild type, temperature: 37 C
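Also: PSI is a weighted mean of sequencing reads over stability bins, variants kept only with over 10 reads, mCherry proximal and sfGFP distal, peptide attached via GGGS linker.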

Row | Sequence | protein stability index (Saccharomyces cerevisiae [1]) | protein stability index (Saccharomyces cerevisiae [2]; [3]) | protein stability index (Saccharomyces cerevisiae [2]; [4]) | protein stability index (Saccharomyces cerevisiae [2]; [5]) | protein stability index (Saccharomyces cerevisiae [2]; [6]) | protein stability index (Saccharomyces cerevisiae [2]; [7]) | protein stability index (Saccharomyces cerevisiae [2]; [8]) | protein stability index (Saccharomyces cerevisiae [2]; [9])
1 | FSFPIIFFGMFL | 0.415 ± 0.0083 | 0.445 ± 0.021 | 0.463 ± 0.0054 | 0.394 ± 0.02 | 0.542 ± 0.006 | 0.426 ± 0.019 | 0.324 ± 0.033 | 0.51 ± 0.021
2 | WGRAADRRRRLG | 0.346 ± 0.025 | 0.633 ± 0.054 | 0.731 ± 0.039 | 0.628 ± 0.011 | 0.7658 ± 0.0054 | 0.152 ± 0.0034 | 0.207 ± 0.013 | 0.344 ± 0.018
3 | VSFLVSIFVSGV | 0.303 ± 0.039 | 0.189 ± 0.025 | 0.246 ± 0.036 | 0.216 ± 0.029 | 0.372 ± 0.0078 | 0.2 ± 0.025 | 0.194 ± 0.048 | 0.332 ± 0.015
4 | SNFDVRRLLVIQ | 0.455 ± 0.033 | 0.616 ± 0.073 | 0.702 ± 0.038 | 0.588 ± 0.021 | 0.697 ± 0.0065 | 0.29 ± 0.0061 | 0.329 ± 0.039 | 0.54 ± 0.014
5 | LVLFYLWSSVWA | 0.3819 ± 0.0021 | 0.4 ± 0.014 | 0.445 ± 0.0055 | 0.29 ± 0.032 | 0.4726 ± 0.0018 | 0.251 ± 0.01 | 0.279 ± 0.034 | 0.441 ± 0.0095
6 | IQICLNRLRLFH | 0.4361 ± 0.0038 | 0.654 ± 0.024 | 0.7 ± 0.01 | 0.63 ± 0.016 | 0.7002 ± 0.0018 | 0.251 ± 0.016 | 0.305 ± 0.02 | 0.573 ± 0.043
7 | RLSTPFTVNHFI | 0.312 ± 0.099 | 0.613 ± 0.031 | 0.732 ± 0.035 | 0.696 ± 0.031 | 0.766 ± 0.0088 | 0.155 ± 0.04 | 0.168 ± 0.044 | 0.374 ± 0.044
8 | INKKKKMIITKI | 0.427 ± 0.019 | 0.617 ± 0.11 | 0.726 ± 0.011 | 0.662 ± 0.073 | 0.742 ± 0.063 | 0.227 ± 0.0025 | 0.253 ± 0.043 | 0.479 ± 0.015
9 | RFICMMYLVYLC | 0.1405 ± 0.0006 | 0.142 ± 0.022 | 0.188 ± 0.023 | 0.192 ± 0.03 | 0.3 ± 0.016 | 0.0601 ± 0.035 | 0.0619 ± 0.018 | 0.073 ± 0.019
10 | PPTLLPPLHPAP | 0.64 ± 0.23 | 0.681 ± 0.056 | 0.725 ± 0.0045 | 0.663 ± 0.011 | 0.7217 ± 0.005 | 0.666 ± 0.028 | 0.688 ± 0.038 | 0.731 ± 0.023
11 | SPTIFLPLFLTS | 0.376 ± 0.037 | 0.426 ± 0.026 | 0.415 ± 0.014 | 0.397 ± 0.028 | 0.522 ± 0.016 | 0.621 ± 0.016 | 0.4 ± 0.029 | 0.468 ± 0.0067
12 | VRWLVFFLFLFG | 0.466 ± 0.074 | 0.501 ± 0.011 | 0.481 ± 0.013 | 0.406 ± 0.023 | 0.555 ± 0.0072 | 0.322 ± 0.0038 | 0.327 ± 0.022 | 0.497 ± 0.016
13 | WFIFTITSVAGL | 0.0312 ± 0.023 | 0.0307 ± 0.009 | 0.0301 ± 0.0014 | 0.0273 ± 0.0031 | 0.0442 ± 0.015 | 0.0226 ± 0.0015 | 0.0205 ± 0.0016 | 0.0325 ± 0.011
14 | VVRYGGVIAFRG | 0.596 ± 0.24 | 0.841 ± 0.065 | 0.641 ± 0.085 | 0.547 ± 0.017 | 0.725 ± 0.029 | 0.579 ± 0.072 | 0.691 ± 0.13 | 0.684 ± 0.13
15 | FCSPFFFFLFRL | 0.4182 ± 0.00048 | 0.283 ± 0.072 | 0.241 ± 0.032 | 0.357 ± 0.028 | 0.4269 ± 0.003 | 0.469 ± 0.0056 | 0.315 ± 0.031 | 0.361 ± 0.03
16 | WCGLFCRSVFVV | 0.158 ± 0.072 | 0.28221 ± 0.00025 | 0.363 ± 0.0043 | 0.263 ± 0.033 | 0.406 ± 0.0015 | 0.0996 ± 0.0021 | 0.11 ± 0.023 | 0.108 ± 0.0023
